Measured values from the supplement of paper PMC9112550, “Optimization of the antimicrobial peptide Bac7 by deep mutational scanning” (BMC Biology, 2022).

System: Escherichia coli TOP10
Experiment: shrunken log2 fold change of peptide-encoding DNA abundance (4.5 h post-induction vs induction); higher = less antimicrobial activity (less host growth inhibition)
Settings: time post-induction: 4.5 h; library: site-saturation at positions 5, 18, 19, 20
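Further: peptides expressed intracellularly from a pBAD plasmid library in pooled LB shake-flask culture, induced with 0.3% L-arabinose, DNA abundance read by NGS, three biological replicates, DESeq2 with apeglm shrinkage.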

Sequence | shrunken log2 fold change
RRIRARPPRLPRPRPRPLCYPRP | -0.0201
RRIRARPPRLPRPRPRPTVPPRP | 0.56
RRIRYRPPRLPRPRPRPWSLPRP | 0.0143
RRIRSRPPRLPRPRPRPVEFPRP | -0.928
RRIRIRPPRLPRPRPRPECEPRP | -0.0311
RRIRKRPPRLPRPRPRPIYKPRP | -0.0701
RRIRIRPPRLPRPRPRPSNVPRP | -0.683
RRIRKRPPRLPRPRPRPHNIPRP | -0.1
RRIRQRPPRLPRPRPRPRYEPRP | -0.349
RRIRSRPPRLPRPRPRPNHFPRP | -0.21
RRIRNRPPRLPRPRPRPNFEPRP | -0.0924
RRIRNRPPRLPRPRPRPKCVPRP | -0.0346
RRIRKRPPRLPRPRPRPSVCPRP | -0.0364
RRIRCRPPRLPRPRPRPFNKPRP | -0.305
RRIRKRPPRLPRPRPRPQLDPRP | 0.207
RRIRPRPPRLPRPRPRPQWCPRP | -0.0525
RRIRTRPPRLPRPRPRPCTQPRP | -0.123
RRIRTRPPRLPRPRPRPQQSPRP | -0.0133
RRIRWRPPRLPRPRPRPYWCPRP | -0.704
RRIRERPPRLPRPRPRPPRCPRP | -0.0309
RRIRERPPRLPRPRPRPVIKPRP | -0.201
RRIRKRPPRLPRPRPRPSGTPRP | 0.113
RRIRVRPPRLPRPRPRPHKKPRP | -0.169
RRIRDRPPRLPRPRPRPVEAPRP | 0.441
RRIRMRPPRLPRPRPRPIKCPRP | -0.0724

Sequence | shrunken log2 fold change
RRIRTRPPRLPRPRPRPHMVPRP | 0.00159
RRIRARPPRLPRPRPRPQVAPRP | 0.591
RRIRTRPPRLPRPRPRPALYPRP | 0.0598
RRIRNRPPRLPRPRPRPCIGPRP | 0.00845
RRIRRRPPRLPRPRPRPADRPRP | 0.00311
RRIRNRPPRLPRPRPRPSICPRP | -0.328
RRIRERPPRLPRPRPRPYEMPRP | -1.05
RRIRARPPRLPRPRPRPENGPRP | -0.0341
RRIRARPPRLPRPRPRPISNPRP | -0.174
RRIRMRPPRLPRPRPRPLIIPRP | -0.249
RRIRMRPPRLPRPRPRPVPIPRP | 0.0109
RRIRARPPRLPRPRPRPCFHPRP | -0.0446
RRIRSRPPRLPRPRPRPPKPPRP | 0.149
RRIRCRPPRLPRPRPRPLERPRP | -0.199
RRIRLRPPRLPRPRPRPESQPRP | -0.000253
RRIRRRPPRLPRPRPRPCRVPRP | 0.0136
RRIRDRPPRLPRPRPRPHDAPRP | 0.0126
RRIRSRPPRLPRPRPRPQLFPRP | 0.309
RRIRNRPPRLPRPRPRPNFNPRP | -0.734
RRIRNRPPRLPRPRPRPHTTPRP | -0.235
RRIRNRPPRLPRPRPRPLFNPRP | -0.777
RRIRDRPPRLPRPRPRPVFAPRP | 0.597
RRIRDRPPRLPRPRPRPVCEPRP | 1.18
RRIRGRPPRLPRPRPRPQGRPRP | 0.553
RRIRRRPPRLPRPRPRPFRQPRP | -0.0196

Sequence | shrunken log2 fold change
RRIRWRPPRLPRPRPRPWDVPRP | 0.0249
RRIRSRPPRLPRPRPRPDLKPRP | -0.00372
RRIRTRPPRLPRPRPRPFMWPRP | -0.119
RRIRWRPPRLPRPRPRPERGPRP | 0.683
RRIRFRPPRLPRPRPRPQWSPRP | -0.485
RRIRNRPPRLPRPRPRPYMYPRP | 0.0369
RRIRWRPPRLPRPRPRPPMQPRP | 0.322
RRIRCRPPRLPRPRPRPSWCPRP | -0.417
RRIRRRPPRLPRPRPRPMARPRP | 0.0728
RRIRSRPPRLPRPRPRPYSPPRP | -0.839
RRIRNRPPRLPRPRPRPCCCPRP | -0.0783
RRIRTRPPRLPRPRPRPRYSPRP | 0.0915
RRIRVRPPRLPRPRPRPPWHPRP | 0.164
RRIRTRPPRLPRPRPRPCEAPRP | 0.114
RRIRIRPPRLPRPRPRPYRMPRP | -1.26
RRIRNRPPRLPRPRPRPEKKPRP | -0.113
RRIRVRPPRLPRPRPRPGGSPRP | 0.0297
RRIRWRPPRLPRPRPRPAMRPRP | 1.1
RRIRNRPPRLPRPRPRPIESPRP | -0.00107
RRIRSRPPRLPRPRPRPKIIPRP | -0.0525
RRIRPRPPRLPRPRPRPQLFPRP | 0.0893
RRIRERPPRLPRPRPRPEVTPRP | -0.0794
RRIRPRPPRLPRPRPRPFDGPRP | -0.214
RRIRERPPRLPRPRPRPYYQPRP | 0.0241
RRIRRRPPRLPRPRPRPTLIPRP | 0.157
